Experimental data from publication PMC8089094, “Mispair-bound human MutS–MutL complex triggers DNA incisions and activates mismatch repair” (Cell Research, 2021).
Each block holds one molecule with its values, some of them ahead of it.

Experiments:
LacI = test: EMSA; details: IPTG; EMSA: 10 mM HEPES pH 7.5, 110 mM KCl, 5 mM MgCl2, 1 mM DTT, 200 ug/mL BSA, 1 pmol cold homoduplex, +/- 2 mM ATP, 20 min on ice; sucrose gradient: 10 mM …
[1] = target: T1, human MutSα (MSH2·MSH6 heterodimer), wild type (human, UniProt P43246 1-934; P52701 1-1360); test: native gel or EMSA; with ATP (2 mM); 0.1 pmol 32P-labeled 100-bp duplex with a G–T mismatch, 2 pmol MutSα or MutLα; more slowly migrating MutSα–MutLα–DNA complex; 10 mM HEPES pH 7.5, 5 mM MgCl2, 1 mM DTT, 110 mM KCl, 20 min on ice; 4% non-denaturing polyacrylamide; details: both partners purified
T1 construct: MSH2 subunit of human MutSα; MSH6 subunit of human MutSα; also called WT MutSα; MSH2WT·MSH6WT; source: insect cells, purified to homogeneity
T1 sequence (P43246 whole entry, chain 1 of 2): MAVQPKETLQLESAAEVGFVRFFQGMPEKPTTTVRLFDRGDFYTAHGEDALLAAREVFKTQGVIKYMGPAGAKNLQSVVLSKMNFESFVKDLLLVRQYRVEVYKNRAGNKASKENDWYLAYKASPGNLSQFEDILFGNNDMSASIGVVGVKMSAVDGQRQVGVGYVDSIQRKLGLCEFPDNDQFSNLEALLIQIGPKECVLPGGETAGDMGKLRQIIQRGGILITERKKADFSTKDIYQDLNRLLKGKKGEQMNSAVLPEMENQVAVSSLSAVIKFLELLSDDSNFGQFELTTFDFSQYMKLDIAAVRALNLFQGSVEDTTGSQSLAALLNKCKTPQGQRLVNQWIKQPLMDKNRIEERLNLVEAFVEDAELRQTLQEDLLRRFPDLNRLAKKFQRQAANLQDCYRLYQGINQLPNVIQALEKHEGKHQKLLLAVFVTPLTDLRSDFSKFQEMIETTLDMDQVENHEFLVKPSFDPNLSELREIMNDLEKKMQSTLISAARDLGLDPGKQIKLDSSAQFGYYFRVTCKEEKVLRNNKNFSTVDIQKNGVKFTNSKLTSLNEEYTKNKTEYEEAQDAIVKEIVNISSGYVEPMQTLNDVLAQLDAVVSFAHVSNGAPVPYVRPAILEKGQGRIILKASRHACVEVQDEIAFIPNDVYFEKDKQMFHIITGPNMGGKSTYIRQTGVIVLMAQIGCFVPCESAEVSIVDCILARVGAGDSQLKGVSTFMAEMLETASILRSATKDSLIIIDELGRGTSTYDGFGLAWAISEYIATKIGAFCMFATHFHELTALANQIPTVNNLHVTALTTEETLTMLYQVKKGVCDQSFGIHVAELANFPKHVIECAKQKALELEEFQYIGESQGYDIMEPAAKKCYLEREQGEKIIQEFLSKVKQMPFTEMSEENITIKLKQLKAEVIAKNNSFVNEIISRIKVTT
T1 sequence (P52701 whole entry, chain 2 of 2): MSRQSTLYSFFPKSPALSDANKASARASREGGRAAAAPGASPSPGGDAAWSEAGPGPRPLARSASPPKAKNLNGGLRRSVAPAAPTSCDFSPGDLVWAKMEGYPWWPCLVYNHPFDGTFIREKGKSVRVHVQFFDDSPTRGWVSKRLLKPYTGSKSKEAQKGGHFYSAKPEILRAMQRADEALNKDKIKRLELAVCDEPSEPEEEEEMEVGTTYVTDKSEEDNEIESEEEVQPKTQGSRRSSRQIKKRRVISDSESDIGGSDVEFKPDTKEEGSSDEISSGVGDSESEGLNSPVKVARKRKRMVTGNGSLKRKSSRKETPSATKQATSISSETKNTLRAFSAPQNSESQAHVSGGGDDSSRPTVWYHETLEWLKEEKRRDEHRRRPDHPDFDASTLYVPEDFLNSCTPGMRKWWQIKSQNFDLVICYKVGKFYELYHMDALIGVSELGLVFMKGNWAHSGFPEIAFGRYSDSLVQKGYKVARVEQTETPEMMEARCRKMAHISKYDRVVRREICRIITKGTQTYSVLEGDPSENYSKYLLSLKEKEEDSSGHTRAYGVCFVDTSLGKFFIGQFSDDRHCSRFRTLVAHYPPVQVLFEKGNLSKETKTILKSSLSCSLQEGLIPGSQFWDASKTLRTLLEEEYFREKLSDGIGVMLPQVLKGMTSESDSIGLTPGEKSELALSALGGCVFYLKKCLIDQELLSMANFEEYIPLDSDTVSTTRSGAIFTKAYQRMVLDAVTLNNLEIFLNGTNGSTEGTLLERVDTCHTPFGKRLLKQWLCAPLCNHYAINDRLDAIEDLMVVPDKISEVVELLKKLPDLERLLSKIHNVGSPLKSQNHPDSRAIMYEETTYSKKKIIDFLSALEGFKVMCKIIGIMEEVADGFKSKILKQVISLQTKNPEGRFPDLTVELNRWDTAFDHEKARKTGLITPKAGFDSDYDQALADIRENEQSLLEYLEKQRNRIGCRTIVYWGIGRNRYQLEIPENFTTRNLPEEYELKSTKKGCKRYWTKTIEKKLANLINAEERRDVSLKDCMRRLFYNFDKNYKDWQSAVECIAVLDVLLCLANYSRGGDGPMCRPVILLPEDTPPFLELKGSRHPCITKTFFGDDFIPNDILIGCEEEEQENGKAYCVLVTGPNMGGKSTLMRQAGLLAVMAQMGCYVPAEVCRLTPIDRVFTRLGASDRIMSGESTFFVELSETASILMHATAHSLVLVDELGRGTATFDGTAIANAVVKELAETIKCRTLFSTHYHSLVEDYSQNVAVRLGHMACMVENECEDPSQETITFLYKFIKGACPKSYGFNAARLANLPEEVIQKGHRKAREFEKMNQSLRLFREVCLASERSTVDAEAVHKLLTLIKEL

Molecule: 282-bp G-T heteroduplex with LOS I and LOS II
binding signal (% of binding released) (LacI): > 70

stoichiometry N [1]: > 1 molecule of MutLα in the MutSα–MutLα complex
B1: human MutLα (MLH1·PMS2 heterodimer), wild type (complex)
chain 1: MSFVAGVIRRLDETVVNRIAAGEVIQRPANAIKEMIENCLDAKSTSIQVIVKEGGLKLIQIQDNGTGIRKEDLDIVCERFTTSKLQSFEDLASISTYGFRGEALASISHVAHVTITTKTADGKCAYRASYSDGKLKAPPKPCAGNQGTQITVEDLFYNIATRRKALKNPSEEYGKILEVVGRYSVHNAGISFSVKKQGETVADVRTLPNASTVDNIRSIFGNAVSRELIEIGCEDKTLAFKMNGYISNANYSVKKCIFLLFINHRLVESTSLRKAIETVYAAYLPKNTHPFLYLSLEISPQNVDVNVHPTKHEVHFLHEESILERVQQHIESKLLGSNSSRMYFTQTLLPGLAGPSGEMVKSTTSLTSSSTSGSSDKVYAHQMVRTDSREQKLDAFLQPLSKPLSSQPQAIVTEDKTDISSGRARQQDEEMLELPAPAEVAAKNQSLEGDTTKGTSEMSEKRGPTSSNPRKRHREDSDVEMVEDDSRKEMTAACTPRRRIINLTSVLSLQEEINEQGHEVLREMLHNHSFVGCVNPQWALAQHQTKLYLLNTTKLSEELFYQILIYDFANFGVLRLSEPAPLFDLAMLALDSPESGWTEEDGPKEGLAEYIVEFLKKKAEMLADYFSLEIDEEGNLIGLPLLIDNYVPPLEGLPIFILRLATEVNWDEEKECFESLSKECAMFYSIRKQYISEESTLSGQQSEVPGSIPNSWKWTVEHIVYKALRSHILPPKHFTEDGNILQLANLPDLYKVFERC
chain 2: MERAESSSTEPAKAIKPIDRKSVHQICSGQVVLSLSTAVKELVENSLDAGATNIDLKLKDYGVDLIEVSDNGCGVEEENFEGLTLKHHTSKIQEFADLTQVETFGFRGEALSSLCALSDVTISTCHASAKVGTRLMFDHNGKIIQKTPYPRPRGTTVSVQQLFSTLPVRHKEFQRNIKKEYAKMVQVLHAYCIISAGIRVSCTNQLGQGKRQPVVCTGGSPSIKENIGSVFGQKQLQSLIPFVQLPPSDSVCEEYGLSCSDALHNLFYISGFISQCTHGVGRSSTDRQFFFINRRPCDPAKVCRLVNEVYHMYNRHQYPFVVLNISVDSECVDINVTPDKRQILLQEEKLLLAVLKTSLIGMFDSDVNKLNVSQQPLLDVEGNLIKMHAADLEKPMVEKQDQSPSLRTGEEKKDVSISRLREAFSLRHTTENKPHSPKTPEPRRSPLGQKRGMLSSSTSGAISDKGVLRPQKEAVSSSHGPSDPTDRAEVEKDSGHGSTSVDSEGFSIPDTGSHCSSEYAASSPGDRGSQEHVDSQEKAPKTDDSFSDVDCHSNQEDTGCKFRVLPQPTNLATPNTKRFKKEEILSSSDICQKLVNTQDMSASQVDVAVKINKKVVPLDFSMSSLAKRIKQLHHEAQQSEGEQNYRKFRAKICPGENQAAEDELRKEISKTMFAEMEIIGQFNLGFIITKLNEDIFIVDQHATDEKYNFEMLQQHTVLQGQRLIAPQTLNLTAVNEAVLIENLEIFRKNGFDFVIDENAPVTERAKLISLPTSKNWTFGPQDVDELIFMLSDSPGVMCRPSRVKQMFASRACRKSVMIGTALNTSEMKKLITHMGEMDHPWNCPHGRPTMRHIANLGVISQN
notes: MLH1 subunit of human MutLα; PMS2 subunit of human MutLα; also called WT MutLα; source: insect cells, purified to homogeneity
